# Laboratory results published in patent publication US20230220062A1 (Eli Lilly, published 2023).
# T1: recombinant human IL-19 (human, UniProt Q9UHD0 25-177)
# T1 construct: also called human IL-19 recombinant protein; interleukin-19
# T1 sequence: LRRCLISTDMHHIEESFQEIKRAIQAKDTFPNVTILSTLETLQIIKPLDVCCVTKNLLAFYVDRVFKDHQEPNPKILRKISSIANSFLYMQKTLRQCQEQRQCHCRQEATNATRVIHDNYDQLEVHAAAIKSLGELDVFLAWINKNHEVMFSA
# How the values were obtained:
# recombinant human IL-19 [1] = molecular target: T1, recombinant human IL-19; test: BLI (Octet Red96), antibody on AMQ biosensor, IL-19 in solution, 25 C, 1:1 fit
# Description: Except as noted, all reagents and materials are from ForteBio (Freemont, Calif.). An AMQ biosensor is used to immobilize antibody of interest for analysis.
# Binding data is processed using standard double-referencing and fit to a 1:1 binding model using Data Analysis v9.0 evaluation software, to determine the association rate (kₒₙ, M⁻¹ s⁻¹ units), dissociation rate (koff, s⁻¹ units), and Rₘₐₓ (nm units). The equilibrium dissociation constant (KD) was calculated from the relationship KD=koff/kₒₙ, and is in molar units.
# recombinant human IL-19 [2] = molecular target: T1, recombinant human IL-19; test: BLI; immobilized antibody loaded with 100 nM human IL-19, then competitor human IL-20R beta Fc-fusion added; the response is that of the receptor-Fc step
# Description: Binding between a ligand immobilized on the biosensor tip surface and an analyte in solution produces an increase in optical thickness at the biosensor tip, which results in a wavelength shift (expressed in nm).
Kd (recombinant human IL-19 [1]) [nM],koff (recombinant human IL-19 [1]) [s⁻¹],kon (recombinant human IL-19 [1]) [M⁻¹ s⁻¹],IL-20R beta Fc protein binding response (nm) (recombinant human IL-19 [2]),Binder
170,0.0348,206000,-0.0421,"rabbit derived IL-19 Ab 39 (R_39) (antibody, V domains shown) VH: QEQLKESGGGLVQPGGSLKLSCKASGFDLSSYGVSWVRQAPGKGLEWIGYIDPVFGSTYYANWVNGRFTISSDNAQNTLYLQLNSLTAADTATYFCARGSGYVYYGYTYDLWGPGTLVTVSS VL: DIVMTQTPASVEAAVGGTVTIKCQASQSIYRYLSWYQQKPGQRPKLLIYGASNLASGVSSRFKGSGSGTEFTLTISDLECADAATYYCQSYYYSSSSGYGNVFGGGTEVVVKG"
0.0576,6.32e-05,1.1e+06,-0.0075,"murine derived IL-19 Ab 1 (M_1) (antibody, mouse IgG1, kappa, V domains shown) VH: EVQLQQSGPVLVKPGASVKMSCKASGYKFTDYFVGWVKQSHGKSLEWIGYVDPENGYTRCNQKFKGKATLTVDKSSSTAYMELNSLTSEDSAVYYCARYDYDWAWFTNWGQGTLVTVSA VL: DIVMTQSPSSLAMSVGQKVTMSCKSSQSLLSSYNQKNYLAWYQQKPGQSPKLLVYFASTRPPGVPDRFIGSGSGSDFTLTISSVQAEDLADYFCQQHERLPITFGAGTKLELKR"
0.311,1.04e-05,33300,,"rabbit derived IL-19 Ab 1 (R_1) (antibody, V domains shown) VH: QQLEESGGGLVQPEGSLTLTCTASGFSFSSSYWICWVRQAPGKGLEWLACIDTGVSGDTYYANWAEGRFTISKTSSTTVTLQMTSLTAADTATYFCARDIFGSAIDNSLWGPGTLVTVSS VL: AIDMTQTPASVSEPVGGTVTIKCQASQSISSYLAWYQQKPGQPPKLLIYSASTLASGVPSRFRGSGSGREFTLTISDLECADAATYYCQCHYHGSSYWDNSFGGGTEVVVK"
0.103,4.42e-05,428000,,"rabbit derived IL-19 Ab 2 (R_2) (antibody, V domains shown) VH: QQLEESGGGLVQPEGSLTLTCTASGFSFSSSYWICWVRQAPGKGLEWLACIDTGVSGDTYYANWAKGRFTISKTSSTTVTLQMTSLTAADTATYFCARDIFGSAIDNSLWGPGTLVTVSS VL: DVVMTQTPASVEAAVGGTVTIKCQASESIGNALAWYQQKPGQPPKLLIYDASKLASGVPSRFKGSGSGTQFTLTISDLECADAATYYCQCHYHGSSYWDNSFGGGTEVVVK"
,,,0.354,"murine derived IL-19 Ab 3 (M_3) (antibody, mouse IgG1, kappa, V domains shown) VH: QIQLVQSGPELKKPGETVKISCKASGYTFTTYGMSWVKQAPGKGLKWMVWINTYSGVPTYVDDFKGRFAFSLETSASTAYLQINNLKNEDTATYFCARRDEGFAYWGQGTLVTVSA VL: DIKMTQSPSSMYASLGERVTITCKASQDINSYLSWFQQKPGKSPKTLIYRANRLVDGVPSRFSGSGSGQDYSLTISSLEYEDMGIYFCLQYDDFPYTFGGGTKLEIKR"

# The next lines start with the binder.
Binder,Kd (recombinant human IL-19 [1]) [nM],koff (recombinant human IL-19 [1]) [s⁻¹],kon (recombinant human IL-19 [1]) [M⁻¹ s⁻¹],IL-20R beta Fc protein binding response (nm) (recombinant human IL-19 [2])
"rabbit derived IL-19 antibody R_4 (antibody, V domains shown) VH: CQSVEESGGRLVTPGTPLTLTCTVSGIDLSIYAMGWVRQAPGKGLEYIGIIDTTGTAYYARWAKGRFTISKTSATVALKITSPTTEDTATYFCARDSGSLYYGSYALWGPGTLVTVSS VL: DVVMTQTPSSVSEPVGGTVTIKCQASQSIYSYLSWYQQKPGQPPKLLIYEASKLASGVPSRFKGSGSGTQFTLTISGVECADAATYYCQQGYSSSNVDNTFGGGTEVVVT",8.52,0.0013,152000,
"rabbit derived IL-19 antibody R_3 (antibody, V domains shown) VH: CQSLEESGGGLVEPEGSLTLTCKASGFSFSSSYWICWVRQAPGKGLEWIACTDTFSGDTYYASWAKGRFTISKTSSTTVTLRMTSLTDADTATYFCARDIFGTAVHISLWGPGTLVTVSS VL: DVVMTQTPSSVEAAVGGTVTIKCQASQSIGSSLAWYQQKPGQRPKLLIYGASTLASGVPSRFKGSGSGTEFTLTISDLECADAATYYCQCHYHGSSYWDNSFGGGTEVVVK",< 0.001,< 1e-07,391000,
"murine derived IL-19 Ab 2 (M_2) (antibody, mouse IgG1, kappa, V domains shown) VH: LVQLQQSDAELVKPGASLKISCKVSGYTFTDHALHWMKQRPEQGLEWIGYIYPRDGSTKYNEKFKGKATLTADRSSSTAYMELNSLTSEDSAVYFCARGWDFAMDYWGQGTSVTVSS VL: DIVLTQSPESLAVSLGQRATISCRASESVDNYGISFIHWYQQKPGQPPKLLIYRASNLKSGIPARFSGRGSRTDFTLTINPVETDDVATYYCQQINKDPLTFGAGTKLELKR",2.9,0.000185,63700,0.361
"murine derived IL-19 Ab 5 (M_5) (antibody, mouse IgG1, kappa, V domains shown) VH: EVQLQQSGPVLVKPGASVKMSCKASGYPFNDYFLGWVKQSHGKSLEWIGSINPDNDYTMSNQKFKGKATLTVDKSSSTAYMELNSLTSEDSAVYYCARYDYDWAWFAHWGQGTLVTVSA VL: DIVMTQSPSSLAMSVGQKVTMSCKSSQSLLSSYNQKNYLAWYQRKPGQSPKLLVYFASQRATGVPDRFIGSGSGSDFTLTISSVQAEDLADYFCQQHTRLPITFGAGTKLELKR",0.0521,3.58e-05,688000,-0.0124
